± gives the standard deviation of the averaged measurements.
System: Saccharomyces cerevisiae
Test: protein stability index of tFT-peptide fusion (C-terminal peptide) (PSI (0-1 scale)); higher = more stable (slower turnover)
Settings: genetic background: cdc34-1; temperature: 37 C
Description: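 MPS profiling in S. cerevisiae of the tFT-X12 degron library: putative degron peptides plus stable controls, 12 aa, fused to the C-terminus of a sfGFP-mCherry timer. Cells are FACS-sorted into 8 mCherry/sfGFP bins and deep-sequenced. PSI runs from 0 (unstable) to 1 (stable). Backgrounds are wild type, das1Δ and doa10Δ at 30 °C, and wild type, das1Δ, cdc34-1 and cdc53-1 at 37 °C; 2-3 technical replicates each.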
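Note: PSI is a weighted mean of sequencing reads over stability bins, variants kept only with over 10 reads, mCherry proximal and sfGFP distal, peptide attached via GGGS linker.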

| Sequence | protein stability index |
| --- | --- |
| PSPVRSSYASTL | 0.6664 ± 0.0066 |
| PSVRCVVACFIN | 0.241 ± 0.021 |
| PVGRSVFFVWFL | 0.65 ± 0.071 |
| PVKGTMIKAKNT | 0.659 ± 0.088 |
| PVLSLPPLSSPP | 0.682 ± 0.032 |
| PVLYSFSLWIHL | 0.34 ± 0.049 |
| PVWLFLVRAIKG | 0.431 ± 0.048 |
| PWLLHTPLSLVF | 0.321 ± 0.032 |
| QCLSYFFPVPVA | 0.073 ± 0.042 |
| QGRRKEKAVTLN | 0.652 ± 0.12 |
| QKGLFYCVILYC | 0.169 ± 0.019 |
| RDGAHFLLILVC | 0.0425 ± 0.0098 |
| RFFFSSFPLLIS | 0.327 ± 0.049 |
| RFLVVVRFYWRC | 0.288 ± 0.087 |
| RGFIYCSFVVRL | 0.4134 ± 0.00058 |
| RGLLLKILIASG | 0.376 ± 0.029 |
| RGVGSGGLEGIG | 0.509 ± 0.06 |
| RGVPPPPWTPPP | 0.706 ± 0.041 |
| RIWRLLIIIIKK | 0.387 ± 0.015 |
| RKRKKISEIIAI | 0.664 ± 0.054 |
| RLPFPVVLFLLF | 0.392 ± 0.033 |
| RLVMAVRVAAGG | 0.509 ± 0.025 |
| RMLSLFFPLRTL | 0.651 ± 0.068 |
| RNWVVDGWRRFP | 0.656 ± 0.03 |
| RPCLSALRFRFF | 0.68 ± 0.037 |
| RPHPLHIPRRLA | 0.624 ± 0.054 |

| Sequence | protein stability index |
| --- | --- |
| RQINEKKKLYMI | 0.513 ± 0.029 |
| RRGLIFFLCCPA | 0.38308 ± 5.8e-05 |
| RRLYERNKNNKQ | 0.696 ± 0.024 |
| RRRRGGQSPALR | 0.651 ± 0.049 |
| RRTTIFDTKEPP | 0.561 ± 0.02 |
| RRVFPLIIVLLF | 0.115 ± 0.023 |
| RSCKSIRGIFVC | 0.606 ± 0.068 |
| RSFPCITVFIRA | 0.514 ± 0.011 |
| RSKWEKLDKIVS | 0.675 ± 0.032 |
| RVCVFVLFGLCF | 0.352 ± 0.041 |
| RWGLCFVHVTMF | 0.0369 ± 0.011 |
| RWRLWVGWWVVG | 0.4532 ± 0.0039 |
| RYRVRIVVFGLV | 0.407 ± 0.018 |
| SCFCFRVLLCSF | 0.333 ± 0.041 |
| SCLFMLFPLVSV | 0.475 ± 0.0048 |
| SCLLVVVSTSGN | 0.5364 ± 0.0018 |
| SFFVCVRVFGCC | 0.315 ± 0.012 |
| SFFWAMSLLCFV | 0.511 ± 0.025 |
| SFGLICFLILCG | 0.218 ± 0.0065 |
| SFIVGYRWNNRN | 0.672 ± 0.018 |
| SFVVVFTFFFGC | 0.272 ± 0.018 |
| SGFLRFRGLVCY | 0.396 ± 0.016 |
| SGFWVSVDVFFV | 0.0673 ± 0.026 |
| SGLPLVILFLCL | 0.529 ± 0.0086 |
| SGRATSSRTSEP | 0.67 ± 0.035 |
| SGWGCRMVVCAG | 0.154 ± 0.026 |

| Sequence | protein stability index |
| --- | --- |
| SHPAPPSPPPSP | 0.618 ± 0.078 |
| SILFSYFCFFLL | 0.523 ± 0.027 |
| SLCPFLCILCFG | 0.327 ± 0.0041 |
| SLCVVIFFSSIT | 0.301 ± 0.011 |
| SLPVSPLVRLLA | 0.563 ± 0.017 |
| SLRICACMTVSW | 0.3 ± 0.0079 |
| SLSALPRPPRLL | 0.669 ± 0.0078 |
| SPPHSPSALPPP | 0.674 ± 0.025 |
| SPWSIHLILLQV | 0.209 ± 0.016 |
| SQCVVYLSVRFS | 0.358 ± 0.067 |
| SQKKKIKKYKET | 0.574 ± 0.032 |
| SREQANTVYRLI | 0.689 ± 0.011 |
| SRFFSCCVFPSF | 0.704 ± 0.02 |
| SRKRIVALMLSG | 0.628 ± 0.012 |
| SRNSSRYLLLVS | 0.539 ± 0.05 |
| SRVGAGVVRGVG | 0.481 ± 0.031 |
| SRVHHLWAILVP | 0.231 ± 0.015 |
| SSGAVGLVIVVC | 0.113 ± 0.028 |
| SSGRLRFISRIH | 0.654 ± 0.033 |
| SSVFLGWLIVCY | 0.0861 ± 0.0015 |
| SSVGLFVLLCLV | 0.31 ± 0.028 |
| STVGAWGRVGEG | 0.435 ± 0.018 |
| SVFFRPVLICCA | 0.0234 ± 0.00059 |
| SVLAIWLTVTLK | 0.0666 ± 0.029 |
| SVLVSVVLFVRS | 0.114 ± 0.055 |
| SVSMYPKPHLIC | 0.571 ± 0.057 |

Same assay, conditions: genetic background: cdc53-1; temperature: 37 C

| Sequence | protein stability index |
| --- | --- |
| PSPVRSSYASTL | 0.704 ± 0.024 |
| PSVRCVVACFIN | 0.584 ± 0.13 |
| PVGRSVFFVWFL | 0.7009 ± 0.0022 |
| PVKGTMIKAKNT | 0.73 ± 0.027 |
| PVLSLPPLSSPP | 0.7318 ± 0.0057 |
| PVLYSFSLWIHL | 0.441 ± 0.024 |
| PVWLFLVRAIKG | 0.455 ± 0.024 |
| PWLLHTPLSLVF | 0.356 ± 0.018 |
| QCLSYFFPVPVA | 0.0838 ± 0.012 |
| QGRRKEKAVTLN | 0.685 ± 0.016 |
| QKGLFYCVILYC | 0.253 ± 0.034 |
| RDGAHFLLILVC | 0.0913 ± 0.022 |
| RFFFSSFPLLIS | 0.2628 ± 0.0026 |
| RFLVVVRFYWRC | 0.424 ± 0.013 |
| RGFIYCSFVVRL | 0.466 ± 0.029 |
| RGLLLKILIASG | 0.463 ± 0.034 |
| RGVGSGGLEGIG | 0.5457 ± 0.0032 |
| RGVPPPPWTPPP | 0.7482 ± 0.0045 |
| RIWRLLIIIIKK | 0.428 ± 0.11 |
| RKRKKISEIIAI | 0.708 ± 0.075 |
| RLPFPVVLFLLF | 0.465 ± 0.028 |
| RLVMAVRVAAGG | 0.532 ± 0.0023 |
| RMLSLFFPLRTL | 0.69994 ± 0.00052 |
| RNWVVDGWRRFP | 0.7425 ± 0.0034 |
| RPCLSALRFRFF | 0.764 ± 0.029 |
| RPHPLHIPRRLA | 0.6848 ± 0.0035 |

| Sequence | protein stability index |
| --- | --- |
| RQINEKKKLYMI | 0.673 ± 0.14 |
| RRGLIFFLCCPA | 0.4335 ± 0.0019 |
| RRLYERNKNNKQ | 0.741 ± 0.049 |
| RRRRGGQSPALR | 0.674 ± 0.0087 |
| RRTTIFDTKEPP | 0.563 ± 0.028 |
| RRVFPLIIVLLF | 0.152 ± 0.014 |
| RSCKSIRGIFVC | 0.7199 ± 0.0018 |
| RSFPCITVFIRA | 0.469 ± 0.029 |
| RSKWEKLDKIVS | 0.777 ± 0.045 |
| RVCVFVLFGLCF | 0.401 ± 0.0075 |
| RWGLCFVHVTMF | 0.0963 ± 0.011 |
| RWRLWVGWWVVG | 0.587 ± 0.0088 |
| RYRVRIVVFGLV | 0.485 ± 0.068 |
| SCFCFRVLLCSF | 0.348 ± 0.0054 |
| SCLFMLFPLVSV | 0.505 ± 0.015 |
| SCLLVVVSTSGN | 0.573 ± 0.0061 |
| SFFVCVRVFGCC | 0.369 ± 0.011 |
| SFFWAMSLLCFV | 0.559 ± 0.012 |
| SFGLICFLILCG | 0.218 ± 0.052 |
| SFIVGYRWNNRN | 0.738 ± 0.035 |
| SFVVVFTFFFGC | 0.381 ± 0.031 |
| SGFLRFRGLVCY | 0.445 ± 0.021 |
| SGFWVSVDVFFV | 0.171 ± 0.022 |
| SGLPLVILFLCL | 0.635 ± 0.04 |
| SGRATSSRTSEP | 0.72963 ± 0.00027 |
| SGWGCRMVVCAG | 0.192 ± 0.028 |

| Sequence | protein stability index |
| --- | --- |
| SHPAPPSPPPSP | 0.676 ± 0.0076 |
| SILFSYFCFFLL | 0.545 ± 0.019 |
| SLCPFLCILCFG | 0.321 ± 0.036 |
| SLCVVIFFSSIT | 0.437 ± 0.037 |
| SLPVSPLVRLLA | 0.599 ± 0.0093 |
| SLRICACMTVSW | 0.373 ± 0.013 |
| SLSALPRPPRLL | 0.713 ± 0.022 |
| SPPHSPSALPPP | 0.726 ± 0.0086 |
| SPWSIHLILLQV | 0.312 ± 0.0012 |
| SQCVVYLSVRFS | 0.5 ± 0.017 |
| SQKKKIKKYKET | 0.665 ± 0.14 |
| SREQANTVYRLI | 0.7132 ± 0.0048 |
| SRFFSCCVFPSF | 0.7941 ± 0.0034 |
| SRKRIVALMLSG | 0.678 ± 0.061 |
| SRNSSRYLLLVS | 0.58 ± 0.076 |
| SRVGAGVVRGVG | 0.534 ± 0.015 |
| SRVHHLWAILVP | 0.265 ± 0.0052 |
| SSGAVGLVIVVC | 0.185 ± 0.01 |
| SSGRLRFISRIH | 0.7064 ± 0.0053 |
| SSVFLGWLIVCY | 0.115 ± 0.033 |
| SSVGLFVLLCLV | 0.333 ± 0.017 |
| STVGAWGRVGEG | 0.462 ± 0.038 |
| SVFFRPVLICCA | 0.0313 ± 0.0091 |
| SVLAIWLTVTLK | 0.0696 ± 0.029 |
| SVLVSVVLFVRS | 0.237 ± 0.021 |
| SVSMYPKPHLIC | 0.682 ± 0.023 |
